Assay in all cases: cleavage_in_vitro
Data set [1] concerns the target T1, SalI (Streptomyces albus G) (UniProt Q53608).
T1 sequence: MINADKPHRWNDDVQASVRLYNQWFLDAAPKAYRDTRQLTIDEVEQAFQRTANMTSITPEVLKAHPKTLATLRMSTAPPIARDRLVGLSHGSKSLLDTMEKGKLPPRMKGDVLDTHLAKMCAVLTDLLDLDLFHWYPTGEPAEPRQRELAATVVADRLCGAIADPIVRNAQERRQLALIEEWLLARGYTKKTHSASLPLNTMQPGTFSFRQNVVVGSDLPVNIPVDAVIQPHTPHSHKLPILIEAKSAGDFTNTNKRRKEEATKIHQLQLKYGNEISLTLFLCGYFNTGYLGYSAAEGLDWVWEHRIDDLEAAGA
To be noted: NEB3, 37 C; Table 10 prints 4.

Data set [2] concerns the target T2, SalI-HF R107A (Streptomyces albus G) (UniProt Q53608).
T2 sequence: T1 sequence with R107A
The following applies: NEB4, 37 C.

The subject of data set [3] is T3, AvrII-HF Y104F (Anabaena variabilis).
T3 sequence: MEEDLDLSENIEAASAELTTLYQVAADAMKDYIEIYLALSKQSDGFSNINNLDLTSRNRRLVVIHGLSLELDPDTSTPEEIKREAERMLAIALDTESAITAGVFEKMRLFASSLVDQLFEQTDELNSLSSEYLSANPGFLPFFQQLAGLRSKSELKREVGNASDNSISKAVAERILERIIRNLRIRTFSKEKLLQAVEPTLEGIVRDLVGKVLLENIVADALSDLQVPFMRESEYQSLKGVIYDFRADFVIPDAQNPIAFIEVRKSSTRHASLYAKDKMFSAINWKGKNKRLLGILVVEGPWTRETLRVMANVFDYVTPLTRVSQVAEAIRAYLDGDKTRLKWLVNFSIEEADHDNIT
The following applies: NEB4, 37 C.

The test system of data set [4] is T4, AvrII (Anabaena variabilis).
T4 sequence: T3 sequence with F104Y
To be noted: NEB4, 37 C.

Data set [5] deals with T5, PvuII-HF T46G (Proteus vulgaris) (UniProt P23657).
T5 sequence: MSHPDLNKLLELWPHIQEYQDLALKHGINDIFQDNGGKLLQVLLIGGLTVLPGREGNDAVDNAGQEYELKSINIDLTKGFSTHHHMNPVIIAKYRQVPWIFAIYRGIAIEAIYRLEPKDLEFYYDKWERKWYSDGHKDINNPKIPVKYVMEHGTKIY
To be noted: NEB4, 37 C.

In data set [6] the target is T6, BamHI(K30A/K88A) K30A/K88A (Bacillus amyloliquefaciens) (UniProt P23940).
T6 sequence: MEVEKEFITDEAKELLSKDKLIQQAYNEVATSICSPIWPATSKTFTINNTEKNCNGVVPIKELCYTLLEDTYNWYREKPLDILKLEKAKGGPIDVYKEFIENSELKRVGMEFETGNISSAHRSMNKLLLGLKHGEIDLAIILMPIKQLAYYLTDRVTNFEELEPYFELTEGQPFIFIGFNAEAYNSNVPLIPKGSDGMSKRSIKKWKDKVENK
The following applies: NEB2, 37 C.

Data set [7] concerns the target T7, BamHI(K30A/K52A) K30A/K52A (Bacillus amyloliquefaciens) (UniProt P23940).
T7 sequence: T6 sequence with K52A, A88K
To be noted: NEB2, 37 C.

The test system of data set [8] is T8, BspQI-HF K279P/R388F (Bacillus sphaericus).
T8 sequence: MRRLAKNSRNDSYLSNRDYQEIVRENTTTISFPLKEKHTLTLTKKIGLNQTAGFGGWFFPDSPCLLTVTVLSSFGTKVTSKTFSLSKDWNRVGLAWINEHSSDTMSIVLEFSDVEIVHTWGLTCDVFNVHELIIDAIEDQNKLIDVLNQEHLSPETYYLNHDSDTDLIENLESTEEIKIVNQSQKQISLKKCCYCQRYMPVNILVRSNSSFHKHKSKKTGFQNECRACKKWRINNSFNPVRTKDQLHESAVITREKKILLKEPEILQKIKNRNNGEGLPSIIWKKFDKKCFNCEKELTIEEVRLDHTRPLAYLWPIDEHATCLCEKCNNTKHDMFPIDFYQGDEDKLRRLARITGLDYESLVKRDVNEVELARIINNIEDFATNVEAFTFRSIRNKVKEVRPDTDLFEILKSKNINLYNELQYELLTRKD
The following applies: NEB4, 50 C.

Positions count from the first letter of the chain named.

On to HindIII-digested lambda DNA, for which the results for the activity (fidelity index) in data set [1] and in data set [2] were 32 and > 2000, respectively.
Consider T7 DNA, for which the activity (fidelity index) came to 1000 in data set [3] and 32 in data set [4].
As to pBR322, in data set [5], the activity (fidelity index) amounted to 500.
In the case of pUC19, the relative cleavage activity (fraction of K30A activity) in data set [6] and in data set [7] was 0.1 in each case. In addition, the activity (fidelity index) in data set [8] was > 4000.

(Values after US20090029376.)
